The target in assay [1] is scTCR-AGD-CD4TM-hζ (human) (UniProt P01730). Kind of assay: flow cytometry, 293H cells transfected with scTCR-AGD-CD4TM-hζ; bar marked **. Reference bars: 293H 1.1, Control vector 1.4.
For the next assay, the target named is scTCR-CD4TM-hζ (human) (UniProt P01730). The experiment in a line: flow cytometry, 293H cells transfected with scTCR-CD4TM-hζ. Reference bars: 293H 1.1, Control vector 1.4.
The target of assay [2] is MA scTCR (single chain Vα23.1Jα14.3-linker-Vβ8.3DβJβ1.2-Cβ2 fused through a thrombin-site linker to the murine CD3 ξ chain), displayed on transfected RBL or BWZ cells (human; mouse). The experiment in a line: flow cytometry, 293H cells transfected with scTCR; bar marked **. Reference bars: 293H 1.1, Control vector 1.4. Background: Flow cytometry measures light scatter and fluorescence of single cells or particles in a stream.

The results in this text go back to patent US20060263334A1.

Regarding anti-TCR βF1 antibody, the values for the Fold increase in MFI (in assay [1]; in the assay with scTCR-CD4TM-hζ (human); in assay [2]) were 6.5 fold, 2.1 fold and 4.4 fold, respectively.
